Experimental data reported in PMC7072297, “Structural Determinants Responsible for the Preferential Insertion of Ribonucleotides by Bacterial NHEJ PolDom” (Biomolecules, 2020).

Substrate: Nc1nc2c(ncn2[C@@H]2O[C@H](COP(=O)(O)OP(=O)(O)OP(=O)(O)O)[C@@H](O)[C@H]2O)c(=O)[nH]1
Test: steady-state primer extension, denaturing PAGE
Type: biochemical, Pseudomonas aeruginosa
Conditions: 200 nM primer/template DNA (Cy5P/T29(A)), misinsertion opposite template dA, 5 mM MnCl2, pH 7.5, 30 °C
Description: steady-state primer extension, denaturing PAGE on Pa-PolDom

B1: Pa-PolDom (Pseudomonas aeruginosa PAO1) (protein)
chain: GARKASAGASRAATAGVRISHPQRLIDPSIQASKLELAEFHARYADLLLRDLRERPVSLVRGPDGIGGELFFQKHAARLKIPGIVQLDPALDPGHPPLLQIRSAEALVGAVQMGSIEFHTWNASLANLERPDRFVLDLDPDPALPWKRMLEATQLSLTLLDELGLRAFLKTSGGKGMHLLVPLERRHGWDEVKDFAQAISQHLARLMPERFSAVSGPRNRVGKIFVDYLRNSRGASTVAAYSVRAREGLPVSVPVFREELDSLQGANQWNLRSLPQRLDELAGDDPWADYAGTRQRISAAMRRQLGRG
notes: polymerization domain, residues 533-840; Arg532 codon replaced by start Met; E. coli BL21(DE3)
B1 was tested, and the Km was 1.211 ± 0.09 µM and the kcat was 0.92 ± 0.02 s⁻¹.
